Data reported in US20240228618A1 (Janssen / Centocor, published 2024).

Target: human CD123 (human, UniProt P26951 19-378)
Assay: cell-based or functional assay

Chain of human CD123 (P26951 19-378): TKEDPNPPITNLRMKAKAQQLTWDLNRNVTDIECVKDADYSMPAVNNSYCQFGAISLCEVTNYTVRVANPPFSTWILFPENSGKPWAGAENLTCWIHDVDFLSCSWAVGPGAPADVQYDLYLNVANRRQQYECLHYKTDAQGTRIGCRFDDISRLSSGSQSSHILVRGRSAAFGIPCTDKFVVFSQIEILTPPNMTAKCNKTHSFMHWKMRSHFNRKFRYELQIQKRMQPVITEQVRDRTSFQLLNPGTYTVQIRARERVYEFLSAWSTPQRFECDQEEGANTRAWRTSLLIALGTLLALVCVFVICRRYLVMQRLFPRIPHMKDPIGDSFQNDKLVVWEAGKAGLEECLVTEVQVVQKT

B1: CD123×CD3 bispecific antibody (bispecific antibody, human IgG4 S228P, kappa, lambda, F234A L235A)
heavy 1: not shown
light 1: EIVLTQSPGTLSLSPGERATLSCRASQSVSSSYLAWYQQKPGQAPRLLIYGASSRATGIPDRFSGSGSGTDFTLTISRLEPEDFAVYYCQQDYGFPWTFGQGTKVEIKRTVAAPSVFIFPPSDEQLKSGTASVVCLLNNFYPREAKVQWKVDNALQSGNSQESVTEQDSKDSTYSLSSTLTLSKADYEKHKVYACEVTHQGLSSPVTKSFNRGEC
heavy 2: EVQLVESGGGLVQPGGSLKLSCAASGFTFNTYAMNWVRQASGKGLEWVGRIRSKYNAYATYYAASVKGRFTISRDDSKNTAYLQMNSLKTEDTAVYYCTRHGNFGNSYVSWFAYWGQGTLVTVSSASTKGPSVFPLAPCSRSTSESTAALGCLVKDYFPEPVTVSWNSGALTSGVHTFPAVLQSSGLYSLSSVVTVPSSSLGTKTYTCNVDHKPSNTKVDKRVESKYGPPCPPCPAPEAAGGPSVFLFPPKPKDTLMISRTPEVTCVVVDVSQEDPEVQFNWYVDGVEVHNAKTKPREEQFNSTYRVVSVLTVLHQDWLNGKEYKCKVSNKGLPSSIEKTISKAKGQPREPQVYTLPPSQEEMTKNQVSLTCLVKGFYPSDIAVEWESNGQPENNYKTTPPVLDSDGSFLLYSKLTVDKSRWQEGNVFSCSVMHEALHNHYTQKSLSLSLGK
light 2: QAVVTQEPSLTVSPGGTVTLTCRSSTGAVTTSNYANWVQQKPGQAPRGLIGGTNKRAPGTPARFSGSLLGGKAALTLSGAQPEDEAEYYCALWYSNLWVFGGGTKLTVLGQPKAAPSVTLFPPSSEELQANKATLVCLISDFYPGAVTVAWKADSSPVKAGVETTTPSKQSNNKYAASSYLSLTPEQWKSHRSYSCQVTHEGSTVEKTVAPTECS
Which results are given for B1?
EC50 of T cell-mediated cytotoxicity, target HL-60, HS-5 stroma, no anti-CD44, 48 h: 0.142 nM; EC50 of T cell-mediated cytotoxicity, target HL-60, HS-5 stroma, with anti-CD44, 48 h: 0.0762 nM; EC50 of T cell-mediated cytotoxicity, target HL-60, no stroma, no anti-CD44, 48 h: 0.0868 nM; EC50 of T cell-mediated cytotoxicity, target HL-60, no stroma, with anti-CD44, 48 h: 0.0808 nM; EC50 of T cell-mediated cytotoxicity, target KG-1, HS-5 stroma, no anti-CD44, 48 h: 0.0319 nM; EC50 of T cell-mediated cytotoxicity, target KG-1, HS-5 stroma, with anti-CD44, 48 h: 0.0265 nM; EC50 of T cell-mediated cytotoxicity, target KG-1, no stroma, no anti-CD44, 48 h: 0.0028 nM; EC50 of T cell-mediated cytotoxicity, target KG-1, no stroma, with anti-CD44, 48 h: 0.0009 nM; EC50 of T cell-mediated cytotoxicity, target MOLM-13, HS-5 stroma, no anti-CD44, 48 h: 0.0262 nM; EC50 of T cell-mediated cytotoxicity, target MOLM-13, HS-5 stroma, with anti-CD44, 48 h: 0.153 nM; EC50 of T cell-mediated cytotoxicity, target MOLM-13, no stroma, no anti-CD44, 48 h: 0.0362 nM; EC50 of T cell-mediated cytotoxicity, target MOLM-13, no stroma, with anti-CD44, 48 h: 0.0125 nM; EC50 of T cell-mediated cytotoxicity, target MV4-11, HS-5 stroma, no anti-CD44, 48 h: 0.0057 nM; EC50 of T cell-mediated cytotoxicity, target MV4-11, HS-5 stroma, with anti-CD44, 48 h: 0.0025 nM; EC50 of T cell-mediated cytotoxicity, target MV4-11, no stroma, no anti-CD44, 48 h: 0.0056 nM; EC50 of T cell-mediated cytotoxicity, target MV4-11, no stroma, with anti-CD44, 48 h: 0.0026 nM; EC50 of T cell-mediated cytotoxicity, target SKNO-1, HS-5 stroma, no anti-CD44, 48 h: 0.0757 nM; EC50 of T cell-mediated cytotoxicity, target SKNO-1, HS-5 stroma, with anti-CD44, 48 h: 0.108 nM; EC50 of T cell-mediated cytotoxicity, target SKNO-1, no stroma, no anti-CD44, 48 h: 0.0111 nM; EC50 of T cell-mediated cytotoxicity, target SKNO-1, no stroma, with anti-CD44, 48 h: 0.0077 nM
